The values below come from patent US20260201008A1, “SECRETIN-DERIVED GLP1R SELECTIVE AGONISTS” (GUBRA A/S, priority 2023, published 2026).

Test [1] deals with human secretin receptor (hSCTR) (human, UniProt P47872 23-440). In words: cell-based or functional assay.
Test [2] has as its target human GLP-1 receptor (hGLP1R) (human, UniProt P43220 24-463). The experiment in a line: cell-based or functional assay.

Numbered stars: 1 amine (or outer) side, 2 acyl side, 3 side chain; on linkers, the order of the positions; unused ones are H or OH. Square brackets hold non-standard residues; d marks the D form. Side chains are listed from the residue outwards. Ends that are not written are not given here. * marks the point of attachment. C20 diacid = O=C(O)CCCCCCCCCCCCCCCCCCC(=O)*; γGlu = O=C(O)[C@H](CCC(=O)[*:2])N[*:1]; AEEA = NCCOCCOCC(=O)O; Aib = CC(C)(N)C(=O)O

human secretin receptor (hSCTR), sequence (P47872 23-440): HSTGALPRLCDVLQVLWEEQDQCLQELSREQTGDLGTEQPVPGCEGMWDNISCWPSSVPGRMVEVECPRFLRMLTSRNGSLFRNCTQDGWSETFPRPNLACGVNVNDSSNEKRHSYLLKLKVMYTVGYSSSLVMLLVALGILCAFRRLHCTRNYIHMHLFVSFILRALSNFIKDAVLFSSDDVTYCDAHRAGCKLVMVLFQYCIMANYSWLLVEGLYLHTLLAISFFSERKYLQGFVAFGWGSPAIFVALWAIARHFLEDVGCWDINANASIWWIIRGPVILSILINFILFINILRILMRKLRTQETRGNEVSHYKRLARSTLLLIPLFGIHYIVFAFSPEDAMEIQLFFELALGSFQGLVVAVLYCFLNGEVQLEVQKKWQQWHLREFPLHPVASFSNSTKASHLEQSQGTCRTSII

B1: SEQ ID NO: 120 (peptide)
peptide: H[Aib]EGTFTSDISGLLEGAALQRFIQWLV-NH2
modifications: N-terminus assumed
SMILES: CC[C@H](C)[C@H](NC(=O)[C@H](CC(=O)O)NC(=O)[C@H](CO)NC(=O)[C@@H](NC(=O)[C@H](Cc1ccccc1)NC(=O)[C@@H](NC(=O)CNC(=O)[C@H](CCC(=O)O)NC(=O)C(C)(C)NC(=O)[C@@H](N)Cc1c[nH]cn1)[C@@H](C)O)[C@@H](C)O)C(=O)N[C@@H](CO)C(=O)NCC(=O)N[C@@H](CC(C)C)C(=O)N[C@@H](CC(C)C)C(=O)N[C@@H](CCC(=O)O)C(=O)NCC(=O)N[C@@H](C)C(=O)N[C@@H](C)C(=O)N[C@@H](CC(C)C)C(=O)N[C@@H](CCC(N)=O)C(=O)N[C@@H](CCCNC(=N)N)C(=O)N[C@@H](Cc1ccccc1)C(=O)N[C@H](C(=O)N[C@@H](CCC(N)=O)C(=O)N[C@@H](Cc1c[nH]c2ccccc12)C(=O)N[C@@H](CC(C)C)C(=O)N[C@H](C(N)=O)C(C)C)[C@@H](C)CC
Regarding B1, the “pEC50 hSCTR” value in test [1] was 6.7 -log M. In test [2], the “pEC50 hGLPR1” value was 10.3 -log M.

With H[Aib]EGTFTSDVSELKELAASQRFLEHLV-NH2 (not fully specified (residue 14)) [SEQ ID NO: 12], in test [1], the “pEC50 hSCTR” value was 6.2 -log M. The “pEC50 hGLPR1” value in test [2] was 10.7 -log M.

B2: SEQ ID NO: 116 (peptide)
peptide: H[Aib]EGTFTSDISVLLEGAALQRFIQWLV-NH2
modifications: N-terminus assumed
SMILES: CC[C@H](C)[C@H](NC(=O)[C@H](Cc1ccccc1)NC(=O)[C@H](CCCNC(=N)N)NC(=O)[C@H](CCC(N)=O)NC(=O)[C@H](CC(C)C)NC(=O)[C@H](C)NC(=O)[C@H](C)NC(=O)CNC(=O)[C@H](CCC(=O)O)NC(=O)[C@H](CC(C)C)NC(=O)[C@H](CC(C)C)NC(=O)[C@@H](NC(=O)[C@H](CO)NC(=O)[C@@H](NC(=O)[C@H](CC(=O)O)NC(=O)[C@H](CO)NC(=O)[C@@H](NC(=O)[C@H](Cc1ccccc1)NC(=O)[C@@H](NC(=O)CNC(=O)[C@H](CCC(=O)O)NC(=O)C(C)(C)NC(=O)[C@@H](N)Cc1c[nH]cn1)[C@@H](C)O)[C@@H](C)O)[C@@H](C)CC)C(C)C)C(=O)N[C@@H](CCC(N)=O)C(=O)N[C@@H](Cc1c[nH]c2ccccc12)C(=O)N[C@@H](CC(C)C)C(=O)N[C@H](C(N)=O)C(C)C
For B2, in test [1], the “pEC50 hSCTR” value was 7.1 -log M. The “pEC50 hGLPR1” value in test [2] was 10.3 -log M.

B3: SEQ ID NO: 117 (peptide)
peptide: H[Aib]EGTFTSDISFLLEGAALQRFIQWLV-NH2
modifications: N-terminus assumed
SMILES: CC[C@H](C)[C@H](NC(=O)[C@H](Cc1ccccc1)NC(=O)[C@H](CCCNC(=N)N)NC(=O)[C@H](CCC(N)=O)NC(=O)[C@H](CC(C)C)NC(=O)[C@H](C)NC(=O)[C@H](C)NC(=O)CNC(=O)[C@H](CCC(=O)O)NC(=O)[C@H](CC(C)C)NC(=O)[C@H](CC(C)C)NC(=O)[C@H](Cc1ccccc1)NC(=O)[C@H](CO)NC(=O)[C@@H](NC(=O)[C@H](CC(=O)O)NC(=O)[C@H](CO)NC(=O)[C@@H](NC(=O)[C@H](Cc1ccccc1)NC(=O)[C@@H](NC(=O)CNC(=O)[C@H](CCC(=O)O)NC(=O)C(C)(C)NC(=O)[C@@H](N)Cc1c[nH]cn1)[C@@H](C)O)[C@@H](C)O)[C@@H](C)CC)C(=O)N[C@@H](CCC(N)=O)C(=O)N[C@@H](Cc1c[nH]c2ccccc12)C(=O)N[C@@H](CC(C)C)C(=O)N[C@H](C(N)=O)C(C)C
On to B3, for which, in test [1], the “pEC50 hSCTR” value was 6.7 -log M. Moreover, in test [2], the “pEC50 hGLPR1” value is 11 -log M.

For H[Aib]EGTFTSDISYLK([AEEA-AEEA-γGlu-C20 diacid])EEA[Aib]LQRFLEHLV-NH2 (also: K14 lipid also given as C18DA[γE][OEG][OEG]-) [SEQ ID NO: 114], the “pEC50 hSCTR” value in test [1] was 7.4 -log M. Further, in test [2], the “pEC50 hGLPR1” value was 11 -log M.

Turning to H[Aib]EGTFTSDPSYLKEEA[Aib]LQRFLEHLV-NH2 (not fully specified (residue 14)) [SEQ ID NO: 121], in test [1], the “pEC50 hSCTR” value is 4.4 -log M. Besides, the “pEC50 hGLPR1” value in test [2] is 8.6 -log M.

B4: SEQ ID NO: 118 (peptide)
peptide: H[Aib]EGTFTSDISWLLEGAALQRFIQWLV-NH2
modifications: N-terminus assumed
SMILES: CC[C@H](C)[C@H](NC(=O)[C@H](Cc1ccccc1)NC(=O)[C@H](CCCNC(=N)N)NC(=O)[C@H](CCC(N)=O)NC(=O)[C@H](CC(C)C)NC(=O)[C@H](C)NC(=O)[C@H](C)NC(=O)CNC(=O)[C@H](CCC(=O)O)NC(=O)[C@H](CC(C)C)NC(=O)[C@H](CC(C)C)NC(=O)[C@H](Cc1c[nH]c2ccccc12)NC(=O)[C@H](CO)NC(=O)[C@@H](NC(=O)[C@H](CC(=O)O)NC(=O)[C@H](CO)NC(=O)[C@@H](NC(=O)[C@H](Cc1ccccc1)NC(=O)[C@@H](NC(=O)CNC(=O)[C@H](CCC(=O)O)NC(=O)C(C)(C)NC(=O)[C@@H](N)Cc1c[nH]cn1)[C@@H](C)O)[C@@H](C)O)[C@@H](C)CC)C(=O)N[C@@H](CCC(N)=O)C(=O)N[C@@H](Cc1c[nH]c2ccccc12)C(=O)N[C@@H](CC(C)C)C(=O)N[C@H](C(N)=O)C(C)C
As for B4, the “pEC50 hSCTR” value in test [1] is 7.1 -log M. Also, the “pEC50 hGLPR1” value in test [2] is 10.2 -log M.

B5: SEQ ID NO: 119 (peptide)
peptide: H[Aib]EGTFTSDISELLEGAALQRFIQWLV-NH2
modifications: N-terminus assumed
SMILES: CC[C@H](C)[C@H](NC(=O)[C@H](Cc1ccccc1)NC(=O)[C@H](CCCNC(=N)N)NC(=O)[C@H](CCC(N)=O)NC(=O)[C@H](CC(C)C)NC(=O)[C@H](C)NC(=O)[C@H](C)NC(=O)CNC(=O)[C@H](CCC(=O)O)NC(=O)[C@H](CC(C)C)NC(=O)[C@H](CC(C)C)NC(=O)[C@H](CCC(=O)O)NC(=O)[C@H](CO)NC(=O)[C@@H](NC(=O)[C@H](CC(=O)O)NC(=O)[C@H](CO)NC(=O)[C@@H](NC(=O)[C@H](Cc1ccccc1)NC(=O)[C@@H](NC(=O)CNC(=O)[C@H](CCC(=O)O)NC(=O)C(C)(C)NC(=O)[C@@H](N)Cc1c[nH]cn1)[C@@H](C)O)[C@@H](C)O)[C@@H](C)CC)C(=O)N[C@@H](CCC(N)=O)C(=O)N[C@@H](Cc1c[nH]c2ccccc12)C(=O)N[C@@H](CC(C)C)C(=O)N[C@H](C(N)=O)C(C)C
Take B5: the “pEC50 hSCTR” value in test [1] was 7.3 -log M. The “pEC50 hGLPR1” value in test [2] was 10.6 -log M.

B6: SEQ ID NO: 115 (peptide)
peptide: H[Aib]EGTFTSDISRLLEGAALQRFIQWLV-NH2
modifications: N-terminus assumed
SMILES: CC[C@H](C)[C@H](NC(=O)[C@H](Cc1ccccc1)NC(=O)[C@H](CCCNC(=N)N)NC(=O)[C@H](CCC(N)=O)NC(=O)[C@H](CC(C)C)NC(=O)[C@H](C)NC(=O)[C@H](C)NC(=O)CNC(=O)[C@H](CCC(=O)O)NC(=O)[C@H](CC(C)C)NC(=O)[C@H](CC(C)C)NC(=O)[C@H](CCCNC(=N)N)NC(=O)[C@H](CO)NC(=O)[C@@H](NC(=O)[C@H](CC(=O)O)NC(=O)[C@H](CO)NC(=O)[C@@H](NC(=O)[C@H](Cc1ccccc1)NC(=O)[C@@H](NC(=O)CNC(=O)[C@H](CCC(=O)O)NC(=O)C(C)(C)NC(=O)[C@@H](N)Cc1c[nH]cn1)[C@@H](C)O)[C@@H](C)O)[C@@H](C)CC)C(=O)N[C@@H](CCC(N)=O)C(=O)N[C@@H](Cc1c[nH]c2ccccc12)C(=O)N[C@@H](CC(C)C)C(=O)N[C@H](C(N)=O)C(C)C
B6: the “pEC50 hSCTR” value in test [1] is 7.8 -log M. The “pEC50 hGLPR1” value in test [2] is 10.4 -log M.
